In paper PMC5587908:
Several values for one entry are separate records, joined by “and”; a condition that tells them apart may be missing. Identical values can stand only once.

Columns and labels:
human plasminogen (Plg) = assay: ELISA; set-up: dose or concentration left out as unconfirmed; conditions: FnBPB proteins immobilized on microtiter wells, read off a plot
[1] = biological target: full-length FnBPB on S. aureus FnBPB^(+) cells (S. aureus strain 8325-4); assay: single-molecule force spectroscopy (AFM); Fg tips against living FnBPB^(+) cells; PBS, contact time 100 ms, applied force 250 pN, speed 1,000 nm s^-1
[2] = biological target: full-length FnBPB on S. aureus FnBPB^(+) cells (S. aureus strain 8325-4); assay: single-molecule force spectroscopy (AFM); as a7, in the presence of 0.1 mg ml^-1 Fg in the AFM chamber
[3] = biological target: full-length FnBPB on S. aureus FnBPB^(+) cells (S. aureus strain 8325-4); assay: single-molecule force spectroscopy (AFM); Plg on the AFM tip (PEG-benzaldehyde linker) against living S. aureus cells trapped in porous membranes; PBS, 20°C, contact time 250 ms, applied force 250 pN, speed 1,000 nm s^-1; without Fg
[4] = biological target: full-length FnBPB on S. aureus FnBPB^(+) cells (S. aureus strain 8325-4); assay: single-cell force spectroscopy (AFM); single living S. aureus cell on a polydopamine-coated colloidal cantilever against Plg coupled to a gold substrate (NHS/EDC); PBS, 20°C, contact time 1 s, applied force 250 pN, speed 1,000 nm s^-1; without Fg
[5] = biological target: FnBPA (194-511), FnBPA_(N2N3) (S. aureus) (UniProt P14738); assay: ELISA; FnBPA_(N2N3) or FnBPB_(N2N3) coated on microtiter wells (200 ng/well, 0.1 M sodium carbonate pH 9.5), increasing concentrations of Plg for 1 h; bound Plg detected with rabbit anti-Plg and HRP goat anti-rabbit IgG; Kd from the Plg saturation kinetics
[6] = biological target: FnBPB (163-480), FnBPB_(N2N3) (S. aureus); assay: as above
[7] = biological target: full-length FnBPB on S. aureus FnBPB^(+) cells (S. aureus strain 8325-4); assay: single-cell force spectroscopy (AFM); as a5, in the presence of 0.1 mg ml^-1 Fg in the AFM chamber

## FnBPB (163-480), FnBPB_(N2N3) (from UniProt A0A0H2XKG3) N312A; F314A
Human plasminogen (Plg); + Fg (black bar), saturating amounts of Fg, bound Plg detected with rabbit antibodies followed by HRP-con, parent: est. 1.5
  response: 1.5 A490nm
Human plasminogen (Plg); - Fg (white bar), bound Plg detected with rabbit antibodies followed by HRP-conjugated goat anti-rabbit IgG, parent: est. 1.6
  response: 1.5 A490nm

## human fibrinogen (Fg) (from UniProt P02671 36-866; P02675 45-491; P02679 27-453) (complex)
[1]
  adhesion force (single molecule, cell 1): 1970 pN
  adhesion force (single molecule, cell 2): 1690 pN
  adhesion force (single molecule, cell 3): 1960 pN

## human plasminogen (Plg) (natural protein)
[2]
  binding force (cell 1, with 0.1 mg/ml Fg): 898 pN
  binding force (cell 2, with 0.1 mg/ml Fg): 619 pN
  binding force (cell 3, with 0.1 mg/ml Fg): 561 pN
  binding probability (cell 1, with 0.1 mg/ml Fg): 81%
  binding probability (cell 2, with 0.1 mg/ml Fg): 79%
  binding probability (cell 3, with 0.1 mg/ml Fg): 73%
[3]
  adhesion force (single molecule): 188 pN
  adhesion frequency: 40%
  binding force (cell 1): 175 pN
  binding force (cell 2): 154 pN
  binding force (cell 3): 176 pN
  binding probability (cell 1): 67%
  binding probability (cell 2): 24%
  binding probability (cell 3): 42%
[4]
  adhesion force (single cell, cell 1): 556 pN
  adhesion force (single cell, cell 2): 249 pN
  adhesion force (single cell, cell 2, a few curves): 1630 pN
  adhesion force (single cell, cell 3): 1600 pN
  maximum adhesion force (single cell, cells 2 and 3): 1500 pN and 2000 pN
  mean adhesion force (single cell, 3 cells): 775 pN
[5]
  Kd: 600 nM
[6]
  Kd: 380 nM
[7]
  mean adhesion force (single cell, 3 cells, with 0.1 mg/ml Fg): 2100 pN
